Measured values as given in patent CN1977043A (CBR INST FOR BIOMED RES INC, dated 2007).

Biological target: IgM CM-22
Test: SPR (Biacore CM5), N2 10.5-120μM injected over amine-coupled IgM CM-22, steady-state fit to 1:1 Langmuir isotherm

Sequence of IgM CM-22 (chain, as listed by the source, chain 1 of 2): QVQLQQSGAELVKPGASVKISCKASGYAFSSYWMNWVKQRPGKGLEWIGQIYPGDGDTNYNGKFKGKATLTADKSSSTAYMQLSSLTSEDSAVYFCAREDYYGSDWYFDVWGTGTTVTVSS
Sequence of IgM CM-22 (chain, as listed by the source, chain 2 of 2): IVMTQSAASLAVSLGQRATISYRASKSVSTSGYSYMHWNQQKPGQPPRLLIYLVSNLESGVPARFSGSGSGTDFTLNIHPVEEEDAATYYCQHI

Binder: LMKNMDPLNDNV (also called 自身肽N2; N2肽) [self peptide N2]
- Kd: 123 µM
